This assay concerns the target Red_a PSI complex (one PSI monomer of the trimer; chimeric Photosystem I of Synechocystis PCC 6803) (Synechocystis sp. PCC6803 | Synechocystis sp. PCC6803 (endogenous)) (UniProt P29254). Description: cryo-EM structure; single particle Cryo-EM of the purified Red_a PSI trimer; 30 mM Tricine-NaOH pH 8, 150 mM NaCl, 0.02% DDM; 1 mg/ml chlorophyll; C1, symmetry expansion and multibody refinement with each monomer as a body.

In turn, “Red_a PSI complex (one PSI monomer of the trimer; chimeric Photosystem I of Synechocystis PCC 6803) (from UniProt P29254 1-751; P29255 1-731; P32422 1-81; P72712 1-86; P37277 1-157)” yielded a stoichiometry N of 3.
